Results on 1 substance are retold here after patent publication EP0554446B1.

In test [1] the target is HIV-1 MN gp120 (HIV-1 MN) (UniProt P05877). Kind of test: ELISA of hybridoma supernatant on membranes of MN-infected against uninfected H9 cells. (In general: An ELISA detects its analyte on a solid surface through an enzyme-linked reagent.)
Test [2] shares this target. Kind of test: RIA of hybridoma supernatant on live HIV-1MN-infected against uninfected H9 cells, 125I rabbit anti-mouse IgG.
The target is the same in test [3]. Kind of test: cell-based or functional assay.
Test [4] deals with HIV-1 IIIB gp120 (HIV-1 IIIB) (UniProt P03375). Kind of test: cell-based or functional assay.
The target in test [5] is HIV-1 RF gp120 (HIV-1 RF) (UniProt P04579). Kind of test: cell-based or functional assay.
Chain of UniProt P04579 (P04579 32-865): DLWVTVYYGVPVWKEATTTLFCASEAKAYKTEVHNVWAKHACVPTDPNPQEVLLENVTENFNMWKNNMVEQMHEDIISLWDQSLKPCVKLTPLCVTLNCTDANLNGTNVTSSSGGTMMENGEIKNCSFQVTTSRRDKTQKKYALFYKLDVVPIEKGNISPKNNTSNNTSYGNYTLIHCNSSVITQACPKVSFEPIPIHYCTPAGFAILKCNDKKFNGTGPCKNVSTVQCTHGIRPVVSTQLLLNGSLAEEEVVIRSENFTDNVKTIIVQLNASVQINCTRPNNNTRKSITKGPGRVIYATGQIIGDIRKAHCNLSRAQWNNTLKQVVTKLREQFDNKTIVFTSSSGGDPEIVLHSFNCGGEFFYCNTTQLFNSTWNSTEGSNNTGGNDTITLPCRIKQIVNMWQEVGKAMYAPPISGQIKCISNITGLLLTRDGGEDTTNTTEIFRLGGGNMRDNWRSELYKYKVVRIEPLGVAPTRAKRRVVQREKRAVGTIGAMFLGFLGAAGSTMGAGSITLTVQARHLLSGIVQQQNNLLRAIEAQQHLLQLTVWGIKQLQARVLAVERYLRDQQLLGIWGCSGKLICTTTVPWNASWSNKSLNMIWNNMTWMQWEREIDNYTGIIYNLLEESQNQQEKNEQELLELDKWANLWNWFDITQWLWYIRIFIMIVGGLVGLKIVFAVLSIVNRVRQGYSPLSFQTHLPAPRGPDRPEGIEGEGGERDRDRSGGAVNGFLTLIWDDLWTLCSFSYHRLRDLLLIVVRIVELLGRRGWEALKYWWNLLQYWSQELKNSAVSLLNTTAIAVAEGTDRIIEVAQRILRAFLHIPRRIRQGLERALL

Chain of UniProt P05877 (P05877 32-856): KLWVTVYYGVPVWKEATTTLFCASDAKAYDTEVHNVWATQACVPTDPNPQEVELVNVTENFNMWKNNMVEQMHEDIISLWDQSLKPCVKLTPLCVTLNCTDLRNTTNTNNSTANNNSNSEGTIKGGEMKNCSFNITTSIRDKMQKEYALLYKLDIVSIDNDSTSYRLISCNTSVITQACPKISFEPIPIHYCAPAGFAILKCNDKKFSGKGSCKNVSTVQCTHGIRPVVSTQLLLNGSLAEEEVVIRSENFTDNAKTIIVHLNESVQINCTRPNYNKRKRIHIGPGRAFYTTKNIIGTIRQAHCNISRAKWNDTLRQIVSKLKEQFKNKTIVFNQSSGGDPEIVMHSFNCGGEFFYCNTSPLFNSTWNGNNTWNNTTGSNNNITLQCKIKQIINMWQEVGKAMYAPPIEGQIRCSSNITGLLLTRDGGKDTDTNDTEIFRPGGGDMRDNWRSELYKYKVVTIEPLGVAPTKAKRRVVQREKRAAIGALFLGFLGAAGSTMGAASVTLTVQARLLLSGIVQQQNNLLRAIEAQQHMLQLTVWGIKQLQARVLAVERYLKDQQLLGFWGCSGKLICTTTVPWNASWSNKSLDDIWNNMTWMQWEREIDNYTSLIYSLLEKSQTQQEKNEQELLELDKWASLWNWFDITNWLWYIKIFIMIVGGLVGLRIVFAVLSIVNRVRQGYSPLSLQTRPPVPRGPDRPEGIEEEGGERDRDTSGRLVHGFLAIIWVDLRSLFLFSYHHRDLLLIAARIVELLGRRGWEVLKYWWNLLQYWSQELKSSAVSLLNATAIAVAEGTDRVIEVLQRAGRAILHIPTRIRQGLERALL

Turning to monoclonal antibody NM-01, the ELISA ratio, infected cell membranes to uninfected cell membranes (Run 1) in test [1] was determined as 5.76. For the same substance, the RIA Ratio cpm inf/cpm uninf in test [2] turned out to be 9.81. In test [3], the ID50, live MN virus, MT-2 assay stood at 2 µg/mL; the ID50, live MN virus, reverse transcriptase assay was < 1 µg/mL; the ID50, syncytium formation by MN-infected H9 cells with C8166 cells stood at 2 µg/mL; the percent inhibition of syncytium formation by MN-infected cells at 25 µg antibody is 85%. For the same substance, in test [4], the ID50, live IIIB virus, MT-2 assay is 0.1 µg/mL; the ID50, live IIIB virus, reverse transcriptase assay is 0.1 µg/mL; the ID50, syncytium formation by IIIB-infected H9 cells with C8166 cells is 3 µg/mL; the percent inhibition of syncytium formation by IIIB-infected cells at 25 µg antibody is 85%. Also, in test [5], the ID50, live RF virus, reverse transcriptase assay was 0.05 µg/mL; the ID50, syncytium formation by RF-infected cells turned out to be 4 µg/mL; the percent inhibition of syncytium formation by RF-infected cells at 25 µg antibody is 59%.
